Results on 125 sequences are retold here after the supplement of paper PMC9112550, “Optimization of the antimicrobial peptide Bac7 by deep mutational scanning” (BMC Biology, 2022).

This data set has as its system Escherichia coli TOP10. The experiment in a line: shrunken log2 fold change of peptide-encoding DNA abundance (4.5 h post-induction vs induction); higher = less antimicrobial activity (less host growth inhibition). The conditions noted are these: time post-induction: 4.5 h; library: site-saturation at positions 5, 18, 19, 20.
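Note: peptides expressed intracellularly from a pBAD plasmid library in pooled LB shake-flask culture, induced with 0.3% L-arabinose, DNA abundance read by NGS, three biological replicates, DESeq2 with apeglm shrinkage.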

On to RRIRGRPPRLPRPRPRPAVSPRP, for which the “shrunken log2 fold change” value was 0.573.
Turning to RRIRCRPPRLPRPRPRPIGRPRP, the “shrunken log2 fold change” value was -0.0502.
As for RRIRFRPPRLPRPRPRPSLVPRP, the “shrunken log2 fold change” value was -0.167.
As for RRIRCRPPRLPRPRPRPVHYPRP, the “shrunken log2 fold change” value was -0.0961.
As to RRIRQRPPRLPRPRPRPVCLPRP, the “shrunken log2 fold change” value is -0.161.
For the sequence RRIRQRPPRLPRPRPRPMVPPRP, the “shrunken log2 fold change” value is -0.0191.
For RRIRMRPPRLPRPRPRPRVNPRP, the “shrunken log2 fold change” value was determined as 1.08.
With RRIRRRPPRLPRPRPRPDRGPRP, the “shrunken log2 fold change” value was -0.216.
For RRIRFRPPRLPRPRPRPRANPRP, the “shrunken log2 fold change” value turned out to be 0.509.
Take RRIRPRPPRLPRPRPRPREDPRP: the “shrunken log2 fold change” value was 0.134.
The same measure for RRIRTRPPRLPRPRPRPRKNPRP: 0.136; for RRIRSRPPRLPRPRPRPHANPRP: -0.168; for RRIRMRPPRLPRPRPRPNPLPRP: 0.567.
On to RRIRARPPRLPRPRPRPTGSPRP, for which the “shrunken log2 fold change” value worked out at 0.841.
In the case of RRIRERPPRLPRPRPRPAHNPRP, the “shrunken log2 fold change” value is -0.0074.
For the sequence RRIRKRPPRLPRPRPRPVDHPRP, the “shrunken log2 fold change” value worked out at 0.147.
For RRIRSRPPRLPRPRPRPVAQPRP, the “shrunken log2 fold change” value came out at 0.101.
With RRIRYRPPRLPRPRPRPPNGPRP, the “shrunken log2 fold change” value came to 3.11.
With RRIRDRPPRLPRPRPRPHTTPRP, the “shrunken log2 fold change” value is -0.117.
RRIRCRPPRLPRPRPRPQLNPRP: the “shrunken log2 fold change” value was -0.188.
For RRIRSRPPRLPRPRPRPRGFPRP, the “shrunken log2 fold change” value was determined as 0.82.
As for RRIRVRPPRLPRPRPRPDEAPRP, the “shrunken log2 fold change” value was -0.0574.
Take RRIRGRPPRLPRPRPRPAQVPRP: the “shrunken log2 fold change” value was found to be 0.274.
On to RRIRCRPPRLPRPRPRPQGAPRP, for which the “shrunken log2 fold change” value was -0.144.
The same measure for RRIRSRPPRLPRPRPRPQGCPRP: -0.0814; for RRIRERPPRLPRPRPRPQARPRP: -0.0863.
The same measure for RRIRNRPPRLPRPRPRPMKPPRP: -0.00018; for RRIRYRPPRLPRPRPRPQFFPRP: -0.0644; for RRIRQRPPRLPRPRPRPATVPRP: 0.239.
For the sequence RRIRTRPPRLPRPRPRPAGFPRP, the “shrunken log2 fold change” value was -0.0588.
As to RRIRRRPPRLPRPRPRPHLLPRP, the “shrunken log2 fold change” value is -0.0838.
Take RRIRARPPRLPRPRPRPMVYPRP: the “shrunken log2 fold change” value is -0.0537.
As to RRIRRRPPRLPRPRPRPNYWPRP, the “shrunken log2 fold change” value is -0.19.
The same measure for RRIRCRPPRLPRPRPRPYKVPRP: -1.05.
In the case of RRIRERPPRLPRPRPRPRGCPRP, the “shrunken log2 fold change” value amounted to 0.286.
RRIRHRPPRLPRPRPRPKYEPRP: the “shrunken log2 fold change” value was -0.255.
For the sequence RRIRQRPPRLPRPRPRPRLSPRP, the “shrunken log2 fold change” value amounted to 0.0751.
As for RRIRSRPPRLPRPRPRPNANPRP, the “shrunken log2 fold change” value is 0.0564.
Regarding RRIRHRPPRLPRPRPRPFMMPRP, the “shrunken log2 fold change” value was -0.272.
For the sequence RRIRPRPPRLPRPRPRPEVRPRP, the “shrunken log2 fold change” value is -0.0106.
Take RRIRHRPPRLPRPRPRPDQRPRP: the “shrunken log2 fold change” value was -0.00114.
Consider RRIRMRPPRLPRPRPRPENMPRP, for which the “shrunken log2 fold change” value is 0.0343.
For RRIRQRPPRLPRPRPRPEVNPRP, the “shrunken log2 fold change” value was -0.142.
For the sequence RRIRARPPRLPRPRPRPWDVPRP, the “shrunken log2 fold change” value was 0.246.
In the case of RRIRERPPRLPRPRPRPQKFPRP, the “shrunken log2 fold change” value is -0.259.
Take RRIRARPPRLPRPRPRPNAVPRP: the “shrunken log2 fold change” value amounted to 0.0101.
Consider RRIRSRPPRLPRPRPRPWWEPRP, for which the “shrunken log2 fold change” value was -0.0921.
As to RRIRQRPPRLPRPRPRPRGVPRP, the “shrunken log2 fold change” value was -0.0152.
RRIRYRPPRLPRPRPRPACNPRP: the “shrunken log2 fold change” value was -0.238.
Regarding RRIRPRPPRLPRPRPRPYNDPRP, the “shrunken log2 fold change” value is -0.723.
As for RRIRRRPPRLPRPRPRPDAEPRP, the “shrunken log2 fold change” value was determined as 1.62.
Under RRIRNRPPRLPRPRPRPSHAPRP stands -0.859.
In the case of RRIRARPPRLPRPRPRPCHPPRP, the “shrunken log2 fold change” value amounted to 0.194.
Regarding RRIRHRPPRLPRPRPRPVQVPRP, the “shrunken log2 fold change” value is -0.162.
Consider RRIRCRPPRLPRPRPRPEAQPRP, for which the “shrunken log2 fold change” value was found to be 0.704.
Regarding RRIRYRPPRLPRPRPRPEQLPRP, the “shrunken log2 fold change” value was -0.0122.
For RRIRFRPPRLPRPRPRPQWTPRP, the “shrunken log2 fold change” value was -0.075.
Regarding RRIRDRPPRLPRPRPRPATWPRP, the “shrunken log2 fold change” value came out at 0.754.
Regarding RRIRDRPPRLPRPRPRPSPMPRP, the “shrunken log2 fold change” value was determined as 0.136.
RRIRGRPPRLPRPRPRPNRQPRP: the “shrunken log2 fold change” value was found to be 0.167.
With RRIRSRPPRLPRPRPRPDMLPRP, the “shrunken log2 fold change” value stood at 0.304.
RRIRTRPPRLPRPRPRPPWDPRP: the “shrunken log2 fold change” value was 0.294.
Turning to RRIRTRPPRLPRPRPRPRGMPRP, the “shrunken log2 fold change” value worked out at 0.24.
In the case of RRIRARPPRLPRPRPRPMPTPRP, the “shrunken log2 fold change” value came to 0.866.
With RRIRVRPPRLPRPRPRPPNGPRP, the “shrunken log2 fold change” value was 0.0958.
For the sequence RRIRVRPPRLPRPRPRPTPQPRP, the “shrunken log2 fold change” value was 0.279.
With RRIRHRPPRLPRPRPRPKNIPRP, the “shrunken log2 fold change” value is -0.477.
For the sequence RRIRVRPPRLPRPRPRPFTYPRP, the “shrunken log2 fold change” value was -0.105.
Consider RRIRFRPPRLPRPRPRPNIEPRP, for which the “shrunken log2 fold change” value was -0.288.
As to RRIRLRPPRLPRPRPRPETVPRP, the “shrunken log2 fold change” value was determined as 0.0594.
The same measure for RRIRKRPPRLPRPRPRPLHSPRP: 0.0787.
With RRIRARPPRLPRPRPRPKEVPRP, the “shrunken log2 fold change” value was -0.0076.
For RRIRMRPPRLPRPRPRPQTLPRP, the “shrunken log2 fold change” value turned out to be 0.0245.
The same measure for RRIRARPPRLPRPRPRPMWVPRP: -0.0205.
RRIRERPPRLPRPRPRPTLCPRP: the “shrunken log2 fold change” value is 0.259.
RRIRSRPPRLPRPRPRPMFLPRP: the “shrunken log2 fold change” value was -0.595.
In the case of RRIRMRPPRLPRPRPRPNQFPRP, the “shrunken log2 fold change” value is -0.0124.
For the sequence RRIRYRPPRLPRPRPRPYPGPRP, the “shrunken log2 fold change” value is -0.379.
Regarding RRIRDRPPRLPRPRPRPQEFPRP, the “shrunken log2 fold change” value is -0.0529.
For the sequence RRIRVRPPRLPRPRPRPLQFPRP, the “shrunken log2 fold change” value is -0.149.
With RRIRGRPPRLPRPRPRPAMFPRP, the “shrunken log2 fold change” value is 0.455.
On to RRIRYRPPRLPRPRPRPMNKPRP, for which the “shrunken log2 fold change” value was -0.187.
As to RRIRLRPPRLPRPRPRPMTQPRP, the “shrunken log2 fold change” value turned out to be 0.162.
Under RRIRQRPPRLPRPRPRPDTIPRP stands 0.0406.
For RRIRTRPPRLPRPRPRPRGPPRP, the “shrunken log2 fold change” value came to 1.02.
The same measure for RRIRPRPPRLPRPRPRPMGIPRP: 0.21; for RRIRVRPPRLPRPRPRPFVVPRP: -0.107.
Consider RRIRHRPPRLPRPRPRPWHPPRP, for which the “shrunken log2 fold change” value is -0.801.
On to RRIRTRPPRLPRPRPRPGQWPRP, for which the “shrunken log2 fold change” value was found to be 0.0938.
With RRIRQRPPRLPRPRPRPCHLPRP, the “shrunken log2 fold change” value was -0.0134.
Under RRIRNRPPRLPRPRPRPQCRPRP stands -0.132; under RRIRNRPPRLPRPRPRPGNKPRP, -0.408; under RRIRYRPPRLPRPRPRPFWFPRP, -0.264.
As for RRIRCRPPRLPRPRPRPSRKPRP, the “shrunken log2 fold change” value is -0.227.
Consider RRIRHRPPRLPRPRPRPLGFPRP, for which the “shrunken log2 fold change” value came to 0.114.
Take RRIRSRPPRLPRPRPRPVPIPRP: the “shrunken log2 fold change” value was found to be 0.129.
The same measure for RRIRERPPRLPRPRPRPLTLPRP: -0.271.
Turning to RRIRARPPRLPRPRPRPDDHPRP, the “shrunken log2 fold change” value was 0.432.
As for RRIRGRPPRLPRPRPRPKYYPRP, the “shrunken log2 fold change” value turned out to be 0.0864.
Consider RRIRLRPPRLPRPRPRPGGYPRP, for which the “shrunken log2 fold change” value was -0.192.
In the case of RRIRMRPPRLPRPRPRPLLFPRP, the “shrunken log2 fold change” value worked out at 0.908.
RRIRFRPPRLPRPRPRPKHFPRP: the “shrunken log2 fold change” value was -0.0499.
For the sequence RRIRKRPPRLPRPRPRPLDDPRP, the “shrunken log2 fold change” value is 0.227.
Turning to RRIRLRPPRLPRPRPRPCINPRP, the “shrunken log2 fold change” value was -0.209.
Take RRIRWRPPRLPRPRPRPRGKPRP: the “shrunken log2 fold change” value worked out at 0.227.
The same measure for RRIRLRPPRLPRPRPRPSFYPRP: -0.7; for RRIRKRPPRLPRPRPRPHYCPRP: -0.00783.
The same measure for RRIRWRPPRLPRPRPRPCPYPRP: -0.271; for RRIRKRPPRLPRPRPRPDGNPRP: 0.00833.
RRIRMRPPRLPRPRPRPLEVPRP: the “shrunken log2 fold change” value came to 0.405.
With RRIRYRPPRLPRPRPRPLDDPRP, the “shrunken log2 fold change” value is -0.115.
As for RRIRWRPPRLPRPRPRPDLAPRP, the “shrunken log2 fold change” value was 0.953.
As to RRIRMRPPRLPRPRPRPLGLPRP, the “shrunken log2 fold change” value came out at 0.717.
Turning to RRIRQRPPRLPRPRPRPSDAPRP, the “shrunken log2 fold change” value was 0.147.
The same measure for RRIRQRPPRLPRPRPRPHWGPRP: 0.0433; for RRIRYRPPRLPRPRPRPLLKPRP: -0.634.
On to RRIRARPPRLPRPRPRPEVWPRP, for which the “shrunken log2 fold change” value came to 1.43.
For the sequence RRIRRRPPRLPRPRPRPPRRPRP, the “shrunken log2 fold change” value turned out to be 1.34.
With RRIRERPPRLPRPRPRPVTTPRP, the “shrunken log2 fold change” value was -0.0245.
Turning to RRIRLRPPRLPRPRPRPIYNPRP, the “shrunken log2 fold change” value is -0.989.
Regarding RRIRCRPPRLPRPRPRPWCYPRP, the “shrunken log2 fold change” value was -0.831.
As for RRIRTRPPRLPRPRPRPLKIPRP, the “shrunken log2 fold change” value is 0.0669.
The same measure for RRIRFRPPRLPRPRPRPHIDPRP: -0.335; for RRIRQRPPRLPRPRPRPVDEPRP: -0.249.
Take RRIRLRPPRLPRPRPRPQMNPRP: the “shrunken log2 fold change” value was -0.507.
